Measurements as given in article PMC6546054 (Genes & Development, 2019).
Blank lines part the entries; values can stand above or below the molecule they belong to.

B1: His6IraD (wild type) (natural protein, E. coli K12, UniProt P39375 1-130, looked up)
chain: MMRQSLQAVLPEISGNKTSSLRKSVCSDLLTLFNSPHSALPSLLVSGMPEWQVHNPSDKHLQSWYCRQLRSALLFHEPRIAALQVNLKEAYCHTLAISLEIMLYHDDEPLTFDLVWDNGGWRSATLENVS

Experiments:
[1] = biological target: RssB (wild type) (E. coli K12) (UniProt P0AEV1); assay: cross-linking
[2] = biological target: T1, RssB^AAA (E. coli K12, UniProt P0AEV1 1-337, E134-E137 to EAAA); assay: pull-down
T1 sequence (looked up): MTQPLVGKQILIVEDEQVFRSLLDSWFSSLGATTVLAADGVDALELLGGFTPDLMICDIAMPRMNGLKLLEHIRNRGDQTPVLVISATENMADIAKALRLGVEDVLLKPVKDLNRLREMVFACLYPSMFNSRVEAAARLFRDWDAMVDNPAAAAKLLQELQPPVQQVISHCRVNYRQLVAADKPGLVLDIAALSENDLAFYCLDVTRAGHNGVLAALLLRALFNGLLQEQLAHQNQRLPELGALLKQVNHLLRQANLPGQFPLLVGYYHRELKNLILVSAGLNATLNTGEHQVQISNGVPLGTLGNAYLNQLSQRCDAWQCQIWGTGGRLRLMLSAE

[3] = biological target: T2, RssB (wild type) (E. coli K12, UniProt P0AEV1 1-337); assay: pull-down
T2 sequence (looked up): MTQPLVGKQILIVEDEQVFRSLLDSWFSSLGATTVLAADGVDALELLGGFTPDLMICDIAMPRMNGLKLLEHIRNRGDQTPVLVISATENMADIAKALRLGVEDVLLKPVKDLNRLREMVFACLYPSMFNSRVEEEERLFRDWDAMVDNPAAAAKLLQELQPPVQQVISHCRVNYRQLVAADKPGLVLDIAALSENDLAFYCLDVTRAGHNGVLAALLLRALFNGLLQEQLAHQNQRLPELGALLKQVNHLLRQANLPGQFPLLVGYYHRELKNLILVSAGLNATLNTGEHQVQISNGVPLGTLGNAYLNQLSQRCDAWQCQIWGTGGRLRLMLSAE

[4] = biological target: T3, RssB^R115A (E. coli K12, UniProt P0AEV1 1-337, R115A); assay: pull-down
T3 sequence (looked up): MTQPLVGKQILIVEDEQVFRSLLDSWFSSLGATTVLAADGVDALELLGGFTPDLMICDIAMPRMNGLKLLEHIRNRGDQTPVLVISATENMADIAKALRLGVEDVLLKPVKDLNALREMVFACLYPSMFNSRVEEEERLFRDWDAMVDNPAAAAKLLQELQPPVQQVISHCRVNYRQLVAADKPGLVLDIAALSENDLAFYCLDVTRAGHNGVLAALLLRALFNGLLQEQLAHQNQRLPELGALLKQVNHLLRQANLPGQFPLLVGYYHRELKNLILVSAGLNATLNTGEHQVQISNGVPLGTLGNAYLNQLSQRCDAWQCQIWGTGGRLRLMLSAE

[5] = biological target: T4, RssB^(Q254A N256A) (E. coli K12, UniProt P0AEV1 1-337, Q254A | N256A); assay: pull-down
T4 sequence (looked up): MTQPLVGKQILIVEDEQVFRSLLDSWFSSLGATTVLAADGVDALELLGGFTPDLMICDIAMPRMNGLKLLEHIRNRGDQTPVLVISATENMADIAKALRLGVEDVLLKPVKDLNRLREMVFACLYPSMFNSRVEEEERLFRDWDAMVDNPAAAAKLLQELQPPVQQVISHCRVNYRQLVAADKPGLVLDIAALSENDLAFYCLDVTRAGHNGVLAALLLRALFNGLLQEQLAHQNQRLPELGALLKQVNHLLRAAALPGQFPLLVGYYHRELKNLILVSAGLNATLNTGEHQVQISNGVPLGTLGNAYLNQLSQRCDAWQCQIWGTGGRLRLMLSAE

[6] = biological target: the molecule itself; assay: cross-linking
[7] = biological target: B1; assay: pull-down

Molecule: B1
binding result [2]: binds
binding result [3]: binds
binding result [4]: binds
binding result [5]: binds

B2: RssB^CC (natural protein, E. coli K12, UniProt P0AEV1 1-337, looked up)
chain: MTQPLVGKQILIVEDEQVFRSLLDSWFSCLGATTVLAADGVDALELLGGFTPDLMICDIAMPRMNGLKLLEHIRNRGDQTPVLVISATENMADIAKALRLGVEDVLLKPVKDLNRLREMVFACLYPSMFNSRVEEEERLFRDWDAMVDNPAAAAKLLQELQPPVQQVISHCRVNYRQLVAADKPGLVLDIAALSENDLAFYCLDVTRAGHNGVLAALLLRALFNGLLQCQLAHQNQRLPELGALLKQVNHLLRQANLPGQFPLLVGYYHRELKNLILVSAGLNATLNTGEHQVQISNGVPLGTLGNAYLNQLSQRCDAWQCQIWGTGGRLRLMLSAE
stoichiometry N [6]: 2

More lines, now with the values ahead:

stoichiometry N [1]: 2
Molecule: RssB (wild type) (from UniProt P0AEV1 1-337) (natural protein)

binding relative to wild type [7]: 18 ± 3%
B3: RssB^D104N (natural protein, E. coli K12, UniProt P0AEV1 1-337, looked up)
chain: MTQPLVGKQILIVEDEQVFRSLLDSWFSSLGATTVLAADGVDALELLGGFTPDLMICDIAMPRMNGLKLLEHIRNRGDQTPVLVISATENMADIAKALRLGVENVLLKPVKDLNRLREMVFACLYPSMFNSRVEEEERLFRDWDAMVDNPAAAAKLLQELQPPVQQVISHCRVNYRQLVAADKPGLVLDIAALSENDLAFYCLDVTRAGHNGVLAALLLRALFNGLLQEQLAHQNQRLPELGALLKQVNHLLRQANLPGQFPLLVGYYHRELKNLILVSAGLNATLNTGEHQVQISNGVPLGTLGNAYLNQLSQRCDAWQCQIWGTGGRLRLMLSAE
